This note sets out measurements from article doi:10.1101/2022.06.01.494398, “Herpes simplex virus 1 protein pUL21 stimulates cellular ceramide transport by activating CERT” (bioRxiv, 2022).

B1: pUL21-H6 (natural protein)
chain: MELSYATTMHYRDVVFYVTTDRNRAYFVCGGCVYSVGRPCASQPGEIAKFGLVVRGTGPDDRVVANYVRSELRQRGLQDVRPIGEDEVFLDSVCLLNPNVSSELDVINTNDVEVLDECLAEYCTSLRTSPGVLISGLRVRAQDRIIELFEHPTIVNVSSHFVYTPSPYVFALAQAHLPRLPSSLEALVSGLFDGIPAPRQPLDAHNPRTDVVITGRRAPRPIAGSGAGSGGAGAKRATVSEFVQVKHIDRVGPAGVSPAPPPNNTDSSSLVPGAQDSAPPGPTLRELWWVFYAADRALEEPRADSGLTREEVRAVRGFREQAWKLFGSAGAPRAFIGAALGLSPLQKLAVYYYIIHRERRLSPFPALVRLVGRYTQRHGLYVPRPDDPVLADAINGLFRDALAAGTTAEQLLMFDLLPPKDVPVGSDVQADSTALLRFIESQRLAVPGGVISPEHVAYLGAFLSVLYAGRGRMSAATHTARLTGVTSLVLAVGDVDRLSAFDRGAAGAASRTRAAGYLDVLLTVRLARSQHGQSV

Data set [1] deals with T1, StrepII-CERTL^S132A (human, UniProt Q9Y5P4-1 1-624, S132A).
T1 sequence: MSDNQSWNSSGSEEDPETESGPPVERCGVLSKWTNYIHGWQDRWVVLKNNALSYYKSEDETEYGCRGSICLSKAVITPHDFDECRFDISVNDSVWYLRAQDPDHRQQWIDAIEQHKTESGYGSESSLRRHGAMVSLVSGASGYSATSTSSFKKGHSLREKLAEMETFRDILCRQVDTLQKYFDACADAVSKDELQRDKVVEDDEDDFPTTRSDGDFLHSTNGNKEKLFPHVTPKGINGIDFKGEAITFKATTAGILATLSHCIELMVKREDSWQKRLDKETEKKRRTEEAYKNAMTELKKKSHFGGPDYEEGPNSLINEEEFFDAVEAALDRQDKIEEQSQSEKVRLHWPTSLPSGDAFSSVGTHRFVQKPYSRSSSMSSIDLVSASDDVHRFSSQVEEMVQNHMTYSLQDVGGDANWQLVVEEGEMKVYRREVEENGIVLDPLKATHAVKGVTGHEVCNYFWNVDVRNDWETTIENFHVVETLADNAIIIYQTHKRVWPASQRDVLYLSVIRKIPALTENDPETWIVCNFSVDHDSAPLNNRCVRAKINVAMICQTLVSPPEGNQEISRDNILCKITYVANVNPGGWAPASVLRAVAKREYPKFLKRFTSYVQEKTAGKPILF
In words: ITC; representative titration.

Data set [2] deals with T1, StrepII-CERTL^S132A. In words: ITC; mean of 2. (ITC needs no label: the signal is the heat of the interaction.)
For data set [3], the target named is B1. In words: ITC; hyperphosphorylated CERTL; mean of 3.
In data set [4] the target is T2, pUL21-H6 (HSV-1, UniProt P10205 1-535).
T2 construct: HSV-1 tegument protein pUL21; The tag's end is read from the name pUL21-H6; also called wild-type pUL21; full-length pUL21; source: E. coli T7 Express lysY/Iq, purified (Ni-NTA, SEC); not shown: H6, C-terminal, kept
T2 sequence: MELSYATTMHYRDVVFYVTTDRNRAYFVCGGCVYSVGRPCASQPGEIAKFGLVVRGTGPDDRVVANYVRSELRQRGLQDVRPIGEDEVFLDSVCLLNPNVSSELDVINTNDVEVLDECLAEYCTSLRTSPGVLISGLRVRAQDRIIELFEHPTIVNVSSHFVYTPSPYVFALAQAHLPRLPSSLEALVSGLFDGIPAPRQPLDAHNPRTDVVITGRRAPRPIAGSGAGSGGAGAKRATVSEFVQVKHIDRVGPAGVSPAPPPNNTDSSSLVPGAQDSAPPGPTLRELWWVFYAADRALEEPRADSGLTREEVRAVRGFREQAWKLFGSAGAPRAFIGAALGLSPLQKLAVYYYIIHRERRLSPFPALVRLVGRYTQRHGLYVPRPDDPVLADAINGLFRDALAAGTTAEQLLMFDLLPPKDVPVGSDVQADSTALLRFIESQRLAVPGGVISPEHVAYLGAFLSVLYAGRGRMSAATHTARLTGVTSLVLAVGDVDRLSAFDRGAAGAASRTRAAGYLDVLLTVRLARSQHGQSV
In words: ITC; 25°C, 20 mM Tris pH 8.5, 500 mM NaCl, 0.5 mM TCEP; CERTL forms or miniCERTL (about 190-380 μM) titrated into pUL21 forms (about 20-33 μM); one-site binding model. Particulars: both partners purified.

Data set [5] deals with the molecule itself. In words: SEC-MALS; Superose 6 increase 10/300 GL, 20 mM Tris pH 8.5, 500 mM NaCl, 0.5 mM TCEP; samples injected at 2 mg/mL. (SEC sorts molecules by how far they enter the pores of the column.)
The target in data set [6] is B1. In words: ITC; hyperphosphorylated CERTL; representative titration.
In data set [7] the target is B1. In words: ITC; mean of 6.
In data set [8] the target is B1. In words: ITC; representative titration.
Data set [9] deals with T3, H6-pUL21C (HSV-1, UniProt P10205 275-535).
T3 chain: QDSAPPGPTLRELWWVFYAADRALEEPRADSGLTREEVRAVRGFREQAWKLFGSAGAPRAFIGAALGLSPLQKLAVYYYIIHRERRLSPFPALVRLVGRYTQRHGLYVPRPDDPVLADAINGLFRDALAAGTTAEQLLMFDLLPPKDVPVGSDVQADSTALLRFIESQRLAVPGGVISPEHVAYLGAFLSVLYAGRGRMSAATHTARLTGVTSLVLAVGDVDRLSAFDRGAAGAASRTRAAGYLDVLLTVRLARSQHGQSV
In words: ITC; representative titration.

For a further data set, the target named is T4, pUL21^V382E-H6 (HSV-1, UniProt P10205 1-535, V382E).
T4 construct: HSV-1 tegument protein pUL21 with V382E; The tag's end is read from the name pUL21^V382E-H6; also called H6-pUL21^V382E; V382E pUL21-H6; source: E. coli T7 Express lysY/Iq, purified (Ni-NTA, SEC); not shown: H6, C-terminal, kept
T4 sequence: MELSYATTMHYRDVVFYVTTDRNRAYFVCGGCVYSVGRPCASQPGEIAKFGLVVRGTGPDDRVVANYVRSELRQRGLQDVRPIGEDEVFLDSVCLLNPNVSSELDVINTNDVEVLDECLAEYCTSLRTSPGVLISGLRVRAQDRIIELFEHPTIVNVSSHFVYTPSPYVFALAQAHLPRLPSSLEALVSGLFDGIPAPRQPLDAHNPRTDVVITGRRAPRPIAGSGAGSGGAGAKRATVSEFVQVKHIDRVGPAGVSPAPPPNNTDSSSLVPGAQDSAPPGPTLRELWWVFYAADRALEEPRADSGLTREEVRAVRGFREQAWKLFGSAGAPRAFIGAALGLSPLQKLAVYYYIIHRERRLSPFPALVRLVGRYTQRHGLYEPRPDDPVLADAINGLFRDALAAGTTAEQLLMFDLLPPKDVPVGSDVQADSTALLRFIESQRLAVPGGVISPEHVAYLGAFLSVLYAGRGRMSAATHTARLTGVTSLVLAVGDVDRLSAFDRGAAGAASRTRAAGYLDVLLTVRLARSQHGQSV
In words: ITC; 25°C, 20 mM Tris pH 8.5, 500 mM NaCl, 0.5 mM TCEP; CERTL forms or miniCERTL (about 190-380 μM) titrated into pUL21 forms (about 20-33 μM); one-site binding model. Particulars: both partners purified.

Data set [10] addresses T5, H6-pUL21C (HSV-1, UniProt P10205 275-535).
T5 construct: HSV-1 pUL21 C-terminal domain, amino acids 275-535; In pOPTH; N-terminal MAH6QD and C-terminal HGQSV are missing from the crystal structure 5ED7 and were modelled; also called C-terminal domain of pUL21; source: E. coli T7 Express lysY/Iq, purified (Ni-NTA, SEC); not shown: MAH6, N-terminal, kept
T5 sequence: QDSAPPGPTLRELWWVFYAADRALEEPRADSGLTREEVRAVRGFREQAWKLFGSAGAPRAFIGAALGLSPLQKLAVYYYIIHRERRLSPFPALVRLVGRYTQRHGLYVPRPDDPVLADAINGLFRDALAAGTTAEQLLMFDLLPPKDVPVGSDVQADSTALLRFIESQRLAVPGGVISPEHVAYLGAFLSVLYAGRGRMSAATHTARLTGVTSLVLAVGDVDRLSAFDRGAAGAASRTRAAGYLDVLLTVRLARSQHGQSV
The description is as above. Particulars: both partners purified.

As to B1, the Kd – broadly, the concentration at which binding is half-saturated – in the data set with StrepII-CERTL^S132A [1] turned out to be 460 nM; with StrepII-CERTL^S132A [2] it was 642 nM.

B2: StrepII-CERTL^P (hyperphosphorylated StrepII-tagged CERTL) (natural protein, human, UniProt Q9Y5P4-1 1-624, looked up)
chain: MSDNQSWNSSGSEEDPETESGPPVERCGVLSKWTNYIHGWQDRWVVLKNNALSYYKSEDETEYGCRGSICLSKAVITPHDFDECRFDISVNDSVWYLRAQDPDHRQQWIDAIEQHKTESGYGSESSLRRHGSMVSLVSGASGYSATSTSSFKKGHSLREKLAEMETFRDILCRQVDTLQKYFDACADAVSKDELQRDKVVEDDEDDFPTTRSDGDFLHSTNGNKEKLFPHVTPKGINGIDFKGEAITFKATTAGILATLSHCIELMVKREDSWQKRLDKETEKKRRTEEAYKNAMTELKKKSHFGGPDYEEGPNSLINEEEFFDAVEAALDRQDKIEEQSQSEKVRLHWPTSLPSGDAFSSVGTHRFVQKPYSRSSSMSSIDLVSASDDVHRFSSQVEEMVQNHMTYSLQDVGGDANWQLVVEEGEMKVYRREVEENGIVLDPLKATHAVKGVTGHEVCNYFWNVDVRNDWETTIENFHVVETLADNAIIIYQTHKRVWPASQRDVLYLSVIRKIPALTENDPETWIVCNFSVDHDSAPLNNRCVRAKINVAMICQTLVSPPEGNQEISRDNILCKITYVANVNPGGWAPASVLRAVAKREYPKFLKRFTSYVQEKTAGKPILF
modifications: hyperphosphorylated; sites not given
notes: human CERTL, synthetic gene, UniProt Q9Y5P4-1; Observed mass by SEC-MALS approaches that of a trimer; not shown: StrepII, N-terminal, kept
As for B2, the dissociation constant (Kd) in the data set with pUL21-H6 [3] stood at 773 nM; in the data set with pUL21-H6 [6] it was 554 nM. Further, the stoichiometry N – broadly, the number of molecules, sites or subunits per partner or assembly – with pUL21-H6 [4] is 0.74; in data set [5] it was roughly 3.

B3: StrepII-CERTL^S132A (natural protein, human, UniProt Q9Y5P4-1 1-624, looked up)
chain: MSDNQSWNSSGSEEDPETESGPPVERCGVLSKWTNYIHGWQDRWVVLKNNALSYYKSEDETEYGCRGSICLSKAVITPHDFDECRFDISVNDSVWYLRAQDPDHRQQWIDAIEQHKTESGYGSESSLRRHGAMVSLVSGASGYSATSTSSFKKGHSLREKLAEMETFRDILCRQVDTLQKYFDACADAVSKDELQRDKVVEDDEDDFPTTRSDGDFLHSTNGNKEKLFPHVTPKGINGIDFKGEAITFKATTAGILATLSHCIELMVKREDSWQKRLDKETEKKRRTEEAYKNAMTELKKKSHFGGPDYEEGPNSLINEEEFFDAVEAALDRQDKIEEQSQSEKVRLHWPTSLPSGDAFSSVGTHRFVQKPYSRSSSMSSIDLVSASDDVHRFSSQVEEMVQNHMTYSLQDVGGDANWQLVVEEGEMKVYRREVEENGIVLDPLKATHAVKGVTGHEVCNYFWNVDVRNDWETTIENFHVVETLADNAIIIYQTHKRVWPASQRDVLYLSVIRKIPALTENDPETWIVCNFSVDHDSAPLNNRCVRAKINVAMICQTLVSPPEGNQEISRDNILCKITYVANVNPGGWAPASVLRAVAKREYPKFLKRFTSYVQEKTAGKPILF
notes: human CERTL, synthetic gene, UniProt Q9Y5P4-1, with S132A; Hypophosphorylated: S132 cannot be phosphorylated to start the phosphorylation cascade of the serine-rich motif; also called constitutively hypophosphorylated form of CERTL; source: stably transfected Freestyle 293F cells, doxycycline-induced, purified (StrepTrap HP, Superose 6 SEC); not shown: StrepII, N-terminal, kept
As to B3, the “stoichiometry N” value with pUL21-H6 [4] was 1; in data set [5], roughly 3.

B4: H6-miniCERTL (domain or fragment, human, UniProt Q9Y5P4-1 20-131, looked up)
chain: SGPPVERCGVLSKWTNYIHGWQDRWVVLKNNALSYYKSEDETEYGCRGSICLSKAVITPHDFDECRFDISVNDSVWYLRAQDPDHRQQWIDAIEQHKTESGYGSESSLRRHGTSLPSGDAFSSVGTHRFVQKPYSRSSSMSSIDLVSASDDVHRFSSQVEEMVQNHMTYSLQDVGGDANWQLVVEEGEMKVYRREVEENGIVLDPLKATHAVKGVTGHEVCNYFWNVDVRNDWETTIENFHVVETLADNAIIIYQTHKRVWPASQRDVLYLSVIRKIPALTENDPETWIVCNFSVDHDSAPLNNRCVRAKINVAMICQTLVSPPEGNQEISRDNILCKITYVANVNPGGWAPASVLRAVAKREYPKFLKRFTSYVQEKTAGKPILF
notes: human CERTL (UniProt Q9Y5P4-1), residues 20-131: PH domain without its first 19 residues and the start of the middle region; human CERTL (UniProt Q9Y5P4-1), residues 351-624: the end of the middle region and the STARTL domain; joined directly to residue 131 (MR residues 132-350 left out); Cloned into pOPTH, which encodes the N-terminal MAH6 tag; source: E. coli T7 Express lysY/Iq, purified …
Turning to B4, the Kd stood at 1040 nM with pUL21-H6 [7], 879 nM with pUL21-H6 [8], 3150 nM with H6-pUL21C [9] and 4300 nM with H6-pUL21C [10]. Further, the “fold reduction of binding affinity against wild-type pUL21” value in the data set with pUL21^V382E-H6 is roughly 8 fold.
